Measurements from the Human Domainome abundance scans (Beltran et al. 2025).
± gives the uncertainty stated by the source.

B1: Zinc finger MYM-type protein 2, residues 463 to 506; numbered along this chain, Q9UBW7 (parent)
chain: IMNCCEQCGEYLPSKGAGNNVLVIDGQQKRFCCQSCVSEYKQVG

Variants of: B1
Assay: abundance fitness (aPCA) (normalised: wild type 0, dead -1); higher = more abundant; growth selection in yeast, the domain comes from the species named
Conditions: Homo sapiens

Abundance fitness of substitutions, site by site:
C33: H -0.09 ± 0.12 | L -0.385 ± 0.097 | E 0.008 ± 0.082 | N -0.164 ± 0.18 | M -0.201 ± 0.12 | F -0.517 ± 0.18 | Q -0.086 ± 0.13 | G -0.023 ± 0.069 | S 0.024 ± 0.093 | A -0.017 ± 0.093 | D 0.051 ± 0.11 | T -0.031 ± 0.11 | R -0.121 ± 0.089 | P -0.342 ± 0.09
K41: G 0.042 ± 0.09 | S 0.027 ± 0.094 | M -0.059 ± 0.12 | A -0.096 ± 0.086 | D 0.193 ± 0.12 | R 0.03 ± 0.086 | V -0.221 ± 0.094 | T 0.209 ± 0.13 | Q 0.006 ± 0.092 | L -0.122 ± 0.11 | Y -0.41 ± 0.25 | P 0.014 ± 0.083 | F -0.285 ± 0.15
C36: G -0.303 ± 0.081 | D -0.262 ± 0.16 | E -0.376 ± 0.092 | S -0.45 ± 0.086 | L -0.423 ± 0.088 | V -0.463 ± 0.091 | P -0.168 ± 0.22 | I 0.163 ± 0.3 | R -0.37 ± 0.079 | H -0.341 ± 0.3 | N -0.273 ± 0.34 | Q -0.201 ± 0.098 | Y -0.445 ± 0.15 | F -0.665 ± 0.16 | T -0.106 ± 0.13
C32: F -0.653 ± 0.36 | G -0.313 ± 0.067 | R -0.298 ± 0.073 | S -0.398 ± 0.084 | L -0.451 ± 0.089 | I -0.71 ± 0.18 | A -0.354 ± 0.076 | Y -0.634 ± 0.33 | Q -0.518 ± 0.11 | P -0.454 ± 0.1 | M -0.537 ± 0.12 | N -0.655 ± 0.26 | W -0.559 ± 0.084 | K -0.439 ± 0.13 | V -0.36 ± 0.077 | E -0.339 ± 0.085 | T -0.433 ± 0.085
D25: S -0.279 ± 0.14 | T -0.06 ± 0.28 | M -0.35 ± 0.32 | Q -0.367 ± 0.17 | F -0.174 ± 0.16 | L -0.455 ± 0.13 | H 0.126 ± 0.18 | P -0.456 ± 0.14 | C -0.25 ± 0.12 | R -0.229 ± 0.11 | E -0.11 ± 0.085 | K -0.155 ± 0.14 | V -0.51 ± 0.094 | G -0.076 ± 0.082 | W -0.618 ± 0.21
F31: R -0.366 ± 0.07 | H -0.273 ± 0.16 | N -0.392 ± 0.37 | G -0.185 ± 0.087 | M -0.267 ± 0.075 | K -0.719 ± 0.27 | L -0.248 ± 0.083 | P -0.223 ± 0.094 | A -0.175 ± 0.074 | Y -0.144 ± 0.12 | D -0.167 ± 0.096 | S -0.231 ± 0.099 | V -0.373 ± 0.081 | Q -0.119 ± 0.097 | W -0.498 ± 0.092
Y40: M -0.167 ± 0.12 | G 0.057 ± 0.096 | E 0.067 ± 0.096 | T 0.11 ± 0.11 | K -0.057 ± 0.18 | D -0.057 ± 0.18 | I -0.249 ± 0.14 | V -0.108 ± 0.1 | P 0.192 ± 0.16 | R -0.037 ± 0.07 | F -0.334 ± 0.4 | L -0.163 ± 0.089 | W 0.002 ± 0.11 | C 0.429 ± 0.29 | S 0.121 ± 0.1 | N -0.309 ± 0.39 | Q 0.067 ± 0.12
Q34: H 0.004 ± 0.13 | S 0.009 ± 0.085 | K -0.213 ± 0.13 | W -0.226 ± 0.082 | M 0.044 ± 0.11 | R -0.232 ± 0.077 | D 0.013 ± 0.12 | A 0.061 ± 0.075 | I -0.448 ± 0.21 | Y -0.615 ± 0.47 | N -0.028 ± 0.25 | C -0.113 ± 0.11 | E 0.087 ± 0.12 | P -0.033 ± 0.11 | T -0.031 ± 0.1 | G -0.017 ± 0.072 | V 0.036 ± 0.084 | L -0.223 ± 0.097 | F -0.039 ± 0.13
R30: Y -0.354 ± 0.41 | L 0.177 ± 0.069 | M 0.068 ± 0.091 | C 0.262 ± 0.17 | D 0.165 ± 0.12 | K 0.216 ± 0.17 | T 0.132 ± 0.091 | H -0.464 ± 0.34 | E 0.3 ± 0.094 | Q 0.193 ± 0.085 | P 0.092 ± 0.089 | G 0.026 ± 0.071 | F -0.088 ± 0.12 | V 0.197 ± 0.075 | S 0.111 ± 0.1
Q42: L -0.101 ± 0.11 | W -0.398 ± 0.14 | T 0.002 ± 0.11 | E -0.102 ± 0.11 | H -0.08 ± 0.12 | A 0.109 ± 0.078
